Reference: patent US11278600B2, “Human alpha-galactosidase variants” (Codexis, Inc., priority 2014, dated 2022)
Positions count from the first letter of the chain named.

B1: 310 (protein)
chain: LDNGLARTPTMGWLHWERFMCNLDCQEEPDSCISEKLFMEMAELMVSEGWKDAGYEYLCIDDCWMAPQRDSEGRLQADPQRFPHGIRQLANYVHSIGLKLGIYADVGNKTCAGFPGSFGYYDIDAQTFADWGVDLLKFDGCYCDSLENLADGYKHMSLALNRTGRSIVYSCEWPLYMWPFQKPNYTEIRQYCNHWRNFADIDDSWASIKSILDWTSFNQERIVDVAGPGGWNDPDMLVIGNFGLSWDQQVTQMALWAIMAAPLFMSNDLRHISPQAKALLQDKDVIAINQDPLGKQGYQLRQGDNFEVWERPLSGLAWAVAIINRQEIGGPRSYTIAVASLGKGVACNPGCFITQLLPVKRKLGFYNWSSRLKSHINPTGTVLLQLENTMQMSLKDLL
modifications: Synthetic Polypeptide sequence of Variant No. 310 of mature Human GLA
B2: 319 (protein)
chain: B1 chain with I96K, L100F, D247N, G350A, S369T, I376V
modifications: Synthetic Polypeptide sequence of Variant No. 319 of mature Human GLA
B3: 321 (protein)
chain: B1 chain with I96K, L100F, R221K, K343G, G350A, S369T
modifications: Synthetic Polypeptide sequence of Variant No. 321 of mature Human GLA
B4: 320 (protein)
chain: B1 chain with I96K, L100F, Q302K, G350A, S369T
modifications: Synthetic Polypeptide sequence of Variant No. 320 of mature Human GLA
B5: 318 (protein)
chain: B1 chain with I96K, L100F, I208V, R221T, D247N, I322V, G350A, S369T, I376V
modifications: Synthetic Polypeptide sequence of Variant No. 318 of mature Human GLA
B6: 317 (protein)
chain: B1 chain with I96K, L100F, I208V, R221K, D247N, I322V, K343D, G350A, F365L, S369T
modifications: Synthetic Polypeptide sequence of Variant No. 317 of mature Human GLA
B7: 315 (protein)
chain: B1 chain with I96K, L100F, I208V, D247N, Q302K, I322V, G350A, F365L, S369T, I376V
modifications: Synthetic Polypeptide sequence of Variant No. 315 of mature Human GLA
B8: 314 (protein)
chain: B1 chain with I96K, L100F, I208V, Q302K, I322V, K343D, G350A, S369T, I376V
modifications: Synthetic Polypeptide sequence of Variant No. 314 of mature Human GLA
B9: 311 (protein)
chain: B1 chain with Q302K, L316D, A337P
modifications: Synthetic Polypeptide sequence of Variant No. 311 of mature Human GLA
B10: 313 (protein)
chain: B1 chain with I96K, L100F, A125S, I208V, R221K, D247N, Q302K, K343G, G350A, S369T
modifications: Synthetic Polypeptide sequence of Variant No. 313 of mature Human GLA
B11: 316 (protein)
chain: B1 chain with I96K, L100F, I208V, R221K, D247N, I322V, K343D, G350A, S369T
modifications: Synthetic Polypeptide sequence of Variant No. 316 of mature Human GLA
B12: 312 (protein)
chain: B1 chain with Q302K, L316D, A337P, K362Q, S369T
modifications: Synthetic Polypeptide sequence of Variant No. 312 of mature Human GLA

assay: HTP-analysis of supernatants pretreated with base (MUGal hydrolysis); type: biochemical; details: challenge at pH 8.2; activity of the variant/activity of Rd3BB (SEQ ID NO: 13); yeast culture supernatant
How it was run: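 GLA variants secreted from yeast INVSc1; culture supernatants pre-incubated with McIlvaine buffer pH 7.0–8.2 or 200 mM bicarbonate pH 9.1–9.7 at 37° C. for 1–18 h. Residual activity: MUGal (4 mM stock) hydrolysis at pH 4.3–4.8, 37° C., 30–180 min, carbonate quench; fluorescence Ex 355/Em 448 nm.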

| Molecule | Relative Activity of GLA Variants After Challenge at pH 8.2 |
| --- | --- |
| B1 | + (+ = 0.5 to 1.5 relative activity over Rd3BB (SEQ ID NO: 13)) |
| B2 | + (+ = 0.5 to 1.5 relative activity over Rd3BB (SEQ ID NO: 13)) |
| B3 | +++ (+++ = >2.5 relative activity over Rd3BB (SEQ ID NO: 13)) |
| B4 | + (+ = 0.5 to 1.5 relative activity over Rd3BB (SEQ ID NO: 13)) |
| B5 | ++ (++ = >1.5 to 2.5 relative activity over Rd3BB (SEQ ID NO: 13)) |
| B6 | − (− = <0.5 relative activity to Rd3BB (SEQ ID NO: 13)) |
| B7 | + (+ = 0.5 to 1.5 relative activity over Rd3BB (SEQ ID NO: 13)) |
| B8 | ++ (++ = >1.5 to 2.5 relative activity over Rd3BB (SEQ ID NO: 13)) |
| B9 | ++ (++ = >1.5 to 2.5 relative activity over Rd3BB (SEQ ID NO: 13)) |
| B10 | − (− = <0.5 relative activity to Rd3BB (SEQ ID NO: 13)) |
| B11 | + (+ = 0.5 to 1.5 relative activity over Rd3BB (SEQ ID NO: 13)) |
| B12 | +++ (+++ = >2.5 relative activity over Rd3BB (SEQ ID NO: 13)) |

assay: HTP-analysis of yeast culture supernatants, no challenge (MUGal hydrolysis); type: biochemical; details: activity of the variant/activity of Rd3BB (SEQ ID NO: 13), yeast culture supernatant
How it was run: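 Activity read as 4-methylumbelliferyl α-D-galactopyranoside hydrolysis: fluorescence (355/448 nm) after sodium carbonate stop, following 30-180 min at 37° C with 2 mM MUGal stock at pH 4.6–4.8. Enzyme source is unchallenged culture supernatant of INVSc1 yeast expressing GLA variants, grown 66-84 h at 30° C.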

| Molecule | Relative Activity of GLA Variants After No Challenge (NC) |
| --- | --- |
| B1 | − (− = <0.5 relative activity to Rd3BB (SEQ ID NO: 13)) |
| B2 | + (+ = 0.5 to 1.5 relative activity over Rd3BB (SEQ ID NO: 13)) |
| B3 | ++ (++ = >1.5 to 2.5 relative activity over Rd3BB (SEQ ID NO: 13)) |
| B4 | + (+ = 0.5 to 1.5 relative activity over Rd3BB (SEQ ID NO: 13)) |
| B5 | + (+ = 0.5 to 1.5 relative activity over Rd3BB (SEQ ID NO: 13)) |
| B6 | + (+ = 0.5 to 1.5 relative activity over Rd3BB (SEQ ID NO: 13)) |
| B7 | + (+ = 0.5 to 1.5 relative activity over Rd3BB (SEQ ID NO: 13)) |
| B8 | + (+ = 0.5 to 1.5 relative activity over Rd3BB (SEQ ID NO: 13)) |
| B9 | + (+ = 0.5 to 1.5 relative activity over Rd3BB (SEQ ID NO: 13)) |
| B10 | + (+ = 0.5 to 1.5 relative activity over Rd3BB (SEQ ID NO: 13)) |
| B11 | + (+ = 0.5 to 1.5 relative activity over Rd3BB (SEQ ID NO: 13)) |
| B12 | ++ (++ = >1.5 to 2.5 relative activity over Rd3BB (SEQ ID NO: 13)) |

assay: HTP-analysis of supernatants pretreated with acid (MUGal hydrolysis); type: biochemical; details: challenge at pH 4.0; activity of the variant/activity of Rd3BB (SEQ ID NO: 13); yeast culture supernatant
How it was run: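 Yeast INVSc1 supernatant, GLA variants; acid challenge: McIlvaine pH 3.3-4.3, 37° C., 1-3 h. Assay: MUGal in McIlvaine pH 4.8 plus citrate pH 4.3, 37° C., 30-180 min, Na2CO3 stop, Ex 355/Em 448 nm.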

| Molecule | Relative Activity of GLA Variants After Challenge at pH 4.0 |
| --- | --- |
| B1 | + (+ = 0.5 to 1.5 relative activity over Rd3BB (SEQ ID NO: 13)) |
| B2 | + (+ = 0.5 to 1.5 relative activity over Rd3BB (SEQ ID NO: 13)) |
| B3 | ++ (++ = >1.5 to 2.5 relative activity over Rd3BB (SEQ ID NO: 13)) |
| B4 | + (+ = 0.5 to 1.5 relative activity over Rd3BB (SEQ ID NO: 13)) |
| B5 | + (+ = 0.5 to 1.5 relative activity over Rd3BB (SEQ ID NO: 13)) |
| B6 | + (+ = 0.5 to 1.5 relative activity over Rd3BB (SEQ ID NO: 13)) |
| B7 | + (+ = 0.5 to 1.5 relative activity over Rd3BB (SEQ ID NO: 13)) |
| B8 | ++ (++ = >1.5 to 2.5 relative activity over Rd3BB (SEQ ID NO: 13)) |
| B9 | + (+ = 0.5 to 1.5 relative activity over Rd3BB (SEQ ID NO: 13)) |
| B10 | + (+ = 0.5 to 1.5 relative activity over Rd3BB (SEQ ID NO: 13)) |
| B11 | + (+ = 0.5 to 1.5 relative activity over Rd3BB (SEQ ID NO: 13)) |
| B12 | +++ (+++ = >2.5 relative activity over Rd3BB (SEQ ID NO: 13)) |

assay: HTP-analysis of supernatants pretreated with bovine serum (MUGal hydrolysis); type: biochemical; details: activity of the variant/activity of Rd3BB (SEQ ID NO: 13), yeast culture supernatant
How it was run: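 Yeast INVSc1 culture supernatants containing secreted GLA variants were mixed with bovine serum (20:80) and held 1 h at 37° C. Serum-treated samples then reacted with MUGal (4 mM stock) in citrate/McIlvaine buffer (pH 4.3/4.8) for 180 min at 37° C., were quenched with sodium carbonate, and read by fluorescence (Ex 355, Em 448 nm).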

| Molecule | Relative Activity of GLA Variants After Challenge with Serum |
| --- | --- |
| B1 | + (+ = 0.5 to 1.5 relative activity over Rd3BB (SEQ ID NO: 13)) |
| B2 | + (+ = 0.5 to 1.5 relative activity over Rd3BB (SEQ ID NO: 13)) |
| B3 | + (+ = 0.5 to 1.5 relative activity over Rd3BB (SEQ ID NO: 13)) |
| B4 | + (+ = 0.5 to 1.5 relative activity over Rd3BB (SEQ ID NO: 13)) |
| B5 | + (+ = 0.5 to 1.5 relative activity over Rd3BB (SEQ ID NO: 13)) |
| B6 | − (− = <0.5 relative activity to Rd3BB (SEQ ID NO: 13)) |
| B7 | + (+ = 0.5 to 1.5 relative activity over Rd3BB (SEQ ID NO: 13)) |
| B8 | + (+ = 0.5 to 1.5 relative activity over Rd3BB (SEQ ID NO: 13)) |
| B9 | + (+ = 0.5 to 1.5 relative activity over Rd3BB (SEQ ID NO: 13)) |
| B10 | + (+ = 0.5 to 1.5 relative activity over Rd3BB (SEQ ID NO: 13)) |
| B11 | + (+ = 0.5 to 1.5 relative activity over Rd3BB (SEQ ID NO: 13)) |
| B12 | +++ (+++ = >2.5 relative activity over Rd3BB (SEQ ID NO: 13)) |
